Test results as given in publication PMC11633057, “Targeting MarA N‐terminal domain dynamics to prevent DNA binding”.

Experiments:
[1] = biological target: T1, MarA I13C/M47C I11C;M45C (Escherichia coli MG1655) (UniProt P0ACH5); experiment: EMSA; conditions: EMSA: 20 mM Hepes pH 8, 100 mM MgCl2, 100 mM EDTA, 0.3 mg/mL BSA, +/- DTT, 0.8 uM MarA, DNA 15 nM (200 bp) or 200 nM (30 bp), 20 min 37 C, 8% native gel, SYBR …
T1 sequence: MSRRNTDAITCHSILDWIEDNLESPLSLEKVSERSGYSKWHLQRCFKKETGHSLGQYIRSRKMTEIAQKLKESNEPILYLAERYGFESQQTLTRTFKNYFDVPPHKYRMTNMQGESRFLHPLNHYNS

[2] = biological target: T2, MarA I16C/M47C I14C;M45C (Escherichia coli MG1655) (UniProt P0ACH5); experiment: EMSA; conditions: EMSA: 20 mM Hepes pH 8, 100 mM MgCl2, 100 mM EDTA, 0.3 mg/mL BSA, +/- DTT, 0.8 uM MarA, DNA 15 nM (200 bp) or 200 nM (30 bp), 20 min 37 C, 8% native gel, SYBR …
T2 sequence: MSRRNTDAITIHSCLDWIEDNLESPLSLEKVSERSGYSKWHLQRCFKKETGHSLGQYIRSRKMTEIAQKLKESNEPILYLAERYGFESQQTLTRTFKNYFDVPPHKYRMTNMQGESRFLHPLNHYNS

[3] = biological target: T3, MarA S62C/L121C S60C;L119C (Escherichia coli MG1655) (UniProt P0ACH5); experiment: EMSA; conditions: EMSA: 20 mM Hepes pH 8, 100 mM MgCl2, 100 mM EDTA, 0.3 mg/mL BSA, +/- DTT, 0.8 uM MarA, DNA 15 nM (200 bp) or 200 nM (30 bp), 20 min 37 C, 8% native gel, SYBR …
T3 sequence: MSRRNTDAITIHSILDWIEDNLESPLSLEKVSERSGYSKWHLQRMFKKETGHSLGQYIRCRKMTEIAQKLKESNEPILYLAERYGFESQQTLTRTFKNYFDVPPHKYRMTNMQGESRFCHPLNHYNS

[4] = biological target: T4, MarA WT (Escherichia coli MG1655) (UniProt P0ACH5); experiment: EMSA; conditions: EMSA: 20 mM Hepes pH 8, 100 mM MgCl2, 100 mM EDTA, 0.3 mg/mL BSA, +/- DTT, 0.8 uM MarA, DNA 15 nM (200 bp) or 200 nM (30 bp), 20 min 37 C, 8% native gel, SYBR …
T4 sequence: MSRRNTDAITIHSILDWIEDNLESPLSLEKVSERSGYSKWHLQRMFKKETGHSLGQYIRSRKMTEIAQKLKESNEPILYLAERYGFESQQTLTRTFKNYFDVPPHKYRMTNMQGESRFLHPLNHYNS

MarA WT = biological target: T5, MarA WT (Escherichia coli MG1655, UniProt P0ACH5 1-127); experiment: EMSA; no DTT; EMSA: 20 mM Hepes pH 8, 100 mM MgCl2, 100 mM EDTA, 0.3 mg/mL BSA, +/- DTT, 0.8 uM MarA, DNA 15 nM (200 bp) or 200 nM (30 bp), 20 min 37 C, 8% native gel, SYBR green; conditions: protein: recombinant; tags: N-terminal 6xHis (pET-15b); blunt
T5 sequence: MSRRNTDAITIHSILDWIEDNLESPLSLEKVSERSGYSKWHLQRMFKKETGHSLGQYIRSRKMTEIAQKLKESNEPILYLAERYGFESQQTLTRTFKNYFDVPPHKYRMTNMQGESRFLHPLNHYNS

MarA I16C/M47C = biological target: T6, MarA I16C/M47C (Escherichia coli MG1655, UniProt P0ACH5 1-127, I14C;M45C); experiment: EMSA; 0.5 or 1 mM DTT; EMSA: 20 mM Hepes pH 8, 100 mM MgCl2, 100 mM EDTA, 0.3 mg/mL BSA, +/- DTT, 0.8 uM MarA, DNA 15 nM (200 bp) or 200 nM (30 bp), 20 min 37 C, 8% native gel, SYBR green; conditions: protein: recombinant; tags: N-terminal 6xHis (pET-15b); blunt
T6 sequence: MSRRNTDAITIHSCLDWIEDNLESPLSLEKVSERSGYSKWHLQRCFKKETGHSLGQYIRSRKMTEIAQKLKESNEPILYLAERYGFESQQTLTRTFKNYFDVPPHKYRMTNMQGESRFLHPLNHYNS

MarA I13C/M47C = biological target: T7, MarA I13C/M47C (Escherichia coli MG1655, UniProt P0ACH5 1-127, I11C;M45C); experiment: EMSA; no DTT (disulfide); EMSA: 20 mM Hepes pH 8, 100 mM MgCl2, 100 mM EDTA, 0.3 mg/mL BSA, +/- DTT, 0.8 uM MarA, DNA 15 nM (200 bp) or 200 nM (30 bp), 20 min 37 C, 8% native gel, SYBR green; conditions: protein: recombinant; tags: N-terminal 6xHis (pET-15b); blunt
T7 sequence: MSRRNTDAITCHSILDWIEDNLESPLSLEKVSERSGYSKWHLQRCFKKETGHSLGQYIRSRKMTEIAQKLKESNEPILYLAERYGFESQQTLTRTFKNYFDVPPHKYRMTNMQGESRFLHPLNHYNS

GTTATCCTGTGTATCTGGGTTATCAGCGAAAAGTATAAGGGGTAAACAAGGATAAAGTGTCACTCTTTAGCTAGCCTTGCATCGCATTGAACAAAACTTGAACCGATTTAGCAAAACGTGGCATCGGTCAATTCATTCATTTGACTTATACTTGCCTGGGCAATATTATCCCCTGCAACTAATTACTTGCCAGGGCAAC (double strand) [marRAB 200-bp fragment]
binds: binding [1] | binding [2] | binding [3] | binding [4]

B1: marRAB 30-bp marbox (dsDNA)
DNA 1: GAACCGATTTAGCAAAACGTGGCATCGGTC
DNA 2: GACCGATGCCACGTTTTGCTAAATCGGTTC
binds: binding result (MarA WT) | binding result (MarA I16C/M47C) | binding result (MarA I13C/M47C)
